According to paper PMC5959072, “Biochemical characterization of RecBCD enzyme from an Antarctic Pseudomonas species and identification of its cognate Chi (χ) sequence” (PLoS ONE, 2018):

Tested on: Nc1ncnc2c1ncn2[C@@H]1O[C@H](COP(=O)(O)OP(=O)(O)OP(=O)(O)O)[C@@H](O)[C@H]1O
Test: purified protein
Settings: 22 °C, pH 7.5, 1 mM Mg acetate, NdeI-linearized pBR322 dsDNA, ATP sites in RecB and RecD
Text: TLC ATPase assay with [γ-32P]ATP tracer on RecBCD^Ps (RecBCD enzyme of Pseudomonas syringae Lz4W)

Substance: RecBCD^Ps (RecBCD enzyme of Pseudomonas syringae Lz4W) (Pseudomonas syringae)
- Km: 57.8 ± 10.1 µM
- kcat: 245 s⁻¹
